The test system of assay [1] is cytosolic calcium concentrations ([Ca^2+]cyt), Col-0^AEQ seedlings. The assay is described as follows: Calcium influx assay (aequorin seedlings). It is filed as in vivo, Arabidopsis thaliana. Particulars: wild type, 30 min. The procedure:
Apoaequorin-expressing liquid-grown eight-day-old seedlings were transferred individually to a 96-well plate containing 100 µl of 5 µM coelenterazine-h (PJK Biotech, Germany) and incubated in the dark overnight. Luminescence was measured using a plate reader (Luminoskan Ascent 2.1, Thermo Fisher Scientific, USA). Background luminescence was recorded by scanning each well 12 times at 10 s intervals, before adding a 25 µl elicitor solution to the indicated final concentration. Luminescence was recorded for 30 min at the same interval. The remaining aequorin was discharged using 2 M CaCl2, 20% ethanol. The values for cytosolic Ca^2+ concentrations ([Ca^2+]cyt) were calculated as luminescence counts per second relative to total luminescence counts remaining (L/Lmax).

For assay [2], the target named is T1, RECEPTOR-LIKE KINASE 7 ectodomain (RLK7^ECD) (Arabidopsis thaliana, UniProt F4I2N7 29-608).
T1 construct: RLK7, Arabidopsis thaliana, ectodomain, residues 29 to 608; Secreted with a 30 K signal peptide from the modified pFastBAC vector; a TEV site stood before the StrepII-9xHis tag, so residues of the site may be left after cleavage; source: Trichoplusia ni Tnao38 cells, secreted, purified (Ni2+, Strep-Tactin, TEV, SEC); not shown: StrepII, C-terminal, cleaved; His9, C-terminal, cleaved
T1 sequence (looked up): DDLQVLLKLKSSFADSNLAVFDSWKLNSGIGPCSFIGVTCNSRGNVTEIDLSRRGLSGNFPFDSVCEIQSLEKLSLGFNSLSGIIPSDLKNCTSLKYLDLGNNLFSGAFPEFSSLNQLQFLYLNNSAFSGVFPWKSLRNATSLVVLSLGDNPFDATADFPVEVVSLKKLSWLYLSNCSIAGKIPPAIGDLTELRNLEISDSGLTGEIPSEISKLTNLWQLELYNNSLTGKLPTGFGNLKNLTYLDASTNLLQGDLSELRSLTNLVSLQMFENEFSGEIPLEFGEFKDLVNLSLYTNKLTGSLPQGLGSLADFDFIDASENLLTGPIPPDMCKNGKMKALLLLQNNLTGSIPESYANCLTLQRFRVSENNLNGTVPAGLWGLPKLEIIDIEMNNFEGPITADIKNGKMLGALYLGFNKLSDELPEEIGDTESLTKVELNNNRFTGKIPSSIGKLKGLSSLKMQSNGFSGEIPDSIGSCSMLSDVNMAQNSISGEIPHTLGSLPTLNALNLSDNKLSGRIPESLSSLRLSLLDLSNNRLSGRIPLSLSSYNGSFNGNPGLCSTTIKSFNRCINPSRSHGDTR
The assay is described as follows: ITC; 300 μM peptide in the syringe injected into 30 μM receptor ectodomain in the cell; 25 °C; 20 mM citrate pH 5.0, 150 mM NaCl (SEC buffer); N fitted to 1; duplicates. The settings on record: both partners purified.

For assay [3], the target named is T2, CEP RECEPTOR 2 ectodomain (CEPR2^ECD) (Arabidopsis thaliana, UniProt Q9C7T7 32-620).
T2 construct: CEPR2, Arabidopsis thaliana, ectodomain, residues 32 to 620; Secreted with a 30 K signal peptide from the modified pFastBAC vector; a TEV site stood before the StrepII-9xHis tag, so residues of the site may be left after cleavage; source: Trichoplusia ni Tnao38 cells, secreted, purified (Ni2+, Strep-Tactin, TEV, SEC); not shown: StrepII, C-terminal, cleaved; His9, C-terminal, cleaved
T2 sequence (looked up): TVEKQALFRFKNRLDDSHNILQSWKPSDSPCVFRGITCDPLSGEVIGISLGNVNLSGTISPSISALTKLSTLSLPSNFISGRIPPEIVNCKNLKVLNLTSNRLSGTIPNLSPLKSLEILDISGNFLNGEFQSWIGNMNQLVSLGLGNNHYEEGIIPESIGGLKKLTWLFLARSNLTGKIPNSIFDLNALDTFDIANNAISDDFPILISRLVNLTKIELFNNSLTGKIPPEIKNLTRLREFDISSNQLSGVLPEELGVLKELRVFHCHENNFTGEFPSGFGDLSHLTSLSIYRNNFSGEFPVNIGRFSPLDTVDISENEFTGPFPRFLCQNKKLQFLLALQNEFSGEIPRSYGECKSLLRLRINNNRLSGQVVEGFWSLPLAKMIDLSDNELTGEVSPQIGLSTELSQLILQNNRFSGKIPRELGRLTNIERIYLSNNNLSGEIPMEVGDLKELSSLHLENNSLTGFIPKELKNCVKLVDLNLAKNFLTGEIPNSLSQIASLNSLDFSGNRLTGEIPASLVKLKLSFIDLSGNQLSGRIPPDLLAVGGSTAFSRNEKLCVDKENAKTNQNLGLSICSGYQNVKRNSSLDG
Described as above. The settings on record: both partners purified.

Non-standard residues stand in square brackets, D forms with d. No end group written: not given here. Hyp = O=C(O)[C@@H]1C[C@@H](O)CN1

For the molecule “AFR[Hyp]THQG[Hyp]SQGIGH [CEP4-15mer, 15mer peptide lacking the N-terminal D residue]”, the calcium influx entry in assay [1] is listed as “triggered a dose-dependent calcium influx with no significant differences to the response elicited by the 16mer peptide”. Turning to RLASG[Hyp]SPRGRGH [PAMP-INDUCED PEPTIDE 1 (PIP1)], the affinity in assay [2], expressed as Kd, was 0.5 µM.

B1: C-… ENCODED PEPTIDE 1 (CEP1) (peptide, UniProt Q8L8Y3 72-86, looked up)
peptide: DFRPTNPGNSPGVGH
notes: CEP1 peptide, the mature CEP domain cut from the CEP1 precursor, Arabidopsis thaliana; source: synthetic peptide (Pepmic, at least 90% purity)
Consider B1, for which binding in assay [3] was characterised by a dissociation constant (Kd) of 9.3 µM.

B2: C-… ENCODED PEPTIDE 4 (CEP4), 16mer (peptide)
peptide: DAFR[Hyp]THQG[Hyp]SQGIGH
notes: CEP4 peptide domain of the CEP4 precursor, Arabidopsis thaliana (AT2G35612); 16mer with N-terminal D and C-terminal H; a 15mer without the N-terminal D is reported only for calcium influx; source: synthetic peptide (Pepmic, at least 90% purity)
With B2, the Kd (usually a measure of binding affinity in units of concentration) came to 15.7 µM in assay [3] and 9 µM in assay [2].

The values are drawn from publication PMC11649690, “CEP signaling coordinates plant immunity with nitrogen status” (Nature Communications, 2024).
